Measurements from patent US20230348892A1.

Target: intC-ZF1-NLS-HA
Assay: cell-based or functional assay

In the case of 3xFLAG-NLS-VP64-intN, the rec: Reconstitution of split TFs (fitted based on split inteins), model rate constant fitted to reporter data is reported as 0.34 U^-1 h^-1.
